Experimental data: PMC5837747

Target: HA-14-3-3β (UniProt P31946)
Test: GFP co-immunoprecipitation, HA blot, densitometry

Substance	binding against the reference (reference: wild type (unstimulated and PMA-treated cells), sites S1093,S1163)	binding against the reference (reference: S1093A single mutant, sites S1163)	binding against the reference (reference: S1163A single mutant, sites S1093)
mouse CdGAP (mCdGAP, GFP-CdGAP) (from UniProt A6X8Z5) S1093A/S1163A	weaker	–	–
mouse CdGAP (mCdGAP, GFP-CdGAP) (from UniProt A6X8Z5) S1093A/S1163A double mutant	–	weaker	weaker
